Laboratory results as given in doi:10.1101/2023.06.21.546005 (bioRxiv, 2023).

Target: the molecule itself
Experiment: crystal structure

| Protein | stoichiometry N | binding result |
| --- | --- | --- |
| Recombinant wild-type L-chain ferritin from horse spleen (natural protein, UniProt P02791 1-175, looked up) MSSQIRQNYSTEVEAAVNRLVNLYLRASYTYLSLGFYFDRDDVALEGVCHFFRELAEEKREGAERLLKMQNQRGGRALFQDLQKPSQDEWGTTLDAMKAAIVLEKSLNQALLDLHALGSAQADPHLCDFLESHFLDEEVKLIKKMGDHLTNIQRLVGSQAGLGEYLFERLTLKHD | 24 |  |
| Fr-A115T (natural protein, horse, UniProt P02791 1-175, looked up) MSSQIRQNYSTEVEAAVNRLVNLYLRASYTYLSLGFYFDRDDVALEGVCHFFRELAEEKREGAERLLKMQNQRGGRALFQDLQKPSQDEWGTTLDAMKAAIVLEKSLNQALLDLHTLGSAQADPHLCDFLESHFLDEEVKLIKKMGDHLTNIQRLVGSQAGLGEYLFERLTLKHD |  | binds |
| Fr-A115V (natural protein, horse, UniProt P02791 1-175, looked up) MSSQIRQNYSTEVEAAVNRLVNLYLRASYTYLSLGFYFDRDDVALEGVCHFFRELAEEKREGAERLLKMQNQRGGRALFQDLQKPSQDEWGTTLDAMKAAIVLEKSLNQALLDLHVLGSAQADPHLCDFLESHFLDEEVKLIKKMGDHLTNIQRLVGSQAGLGEYLFERLTLKHD |  | binds |
| Fr-S118A (natural protein, horse, UniProt P02791 1-175, looked up) MSSQIRQNYSTEVEAAVNRLVNLYLRASYTYLSLGFYFDRDDVALEGVCHFFRELAEEKREGAERLLKMQNQRGGRALFQDLQKPSQDEWGTTLDAMKAAIVLEKSLNQALLDLHALGAAQADPHLCDFLESHFLDEEVKLIKKMGDHLTNIQRLVGSQAGLGEYLFERLTLKHD |  | binds |
| Fr-H114A (natural protein, horse, UniProt P02791 1-175, looked up) MSSQIRQNYSTEVEAAVNRLVNLYLRASYTYLSLGFYFDRDDVALEGVCHFFRELAEEKREGAERLLKMQNQRGGRALFQDLQKPSQDEWGTTLDAMKAAIVLEKSLNQALLDLAALGSAQADPHLCDFLESHFLDEEVKLIKKMGDHLTNIQRLVGSQAGLGEYLFERLTLKHD |  | binds |
| Fr-A115G (natural protein, horse, UniProt P02791 1-175, looked up) MSSQIRQNYSTEVEAAVNRLVNLYLRASYTYLSLGFYFDRDDVALEGVCHFFRELAEEKREGAERLLKMQNQRGGRALFQDLQKPSQDEWGTTLDAMKAAIVLEKSLNQALLDLHGLGSAQADPHLCDFLESHFLDEEVKLIKKMGDHLTNIQRLVGSQAGLGEYLFERLTLKHD |  | binds |
